PMC6741145

Target: His6‐tagged DP1 (small subunit of DNA polymerase D) of Thermococcus sp. 4557 (Thermococcus sp. 4557)
Test: SEC; 100 µg of each protein or mixture on Superdex‐200 HR10/30 in 25 mM Tris‐HCl pH 7.5, 100 mM NaCl, 10% glycerol; fractions on SDS–PAGE, Coomassie

His6‐tagged DP1 (small subunit of DNA polymerase D) of Thermococcus sp. 4557 (enzyme)
stoichiometry N: 2
